Data taken from IntAct's records for PubMed 19864458.

B1: MICAL-like protein 1 (Homo sapiens), Q8N3F8 (parent)
chain: MAGPRGALLAWCRRQCEGYRGVEIRDLSSSFRDGLAFCAILHRHRPDLLDFDSLSKDNVFENNRLAFEVAEKELGIPALLDPNDMVSMSVPDCLSIMTYVSQYYNHFCSPGQAGVSPPRKGLAPCSPPSVAPTPVEPEDVAQGEELSSGSLSEQGTGQTPSSTCAACQQHVHLVQRYLADGRLYHRHCFRCRRCSSTLLPGAYENGPEEGTFVCAEHCARLGPGTRSGTRPGPFSQPKQQHQQQLAEDAKDVPGGGPSSSAPAGAEADGPKASPEARPQIPTKPRVPGKLQELASPPAGRPTPAPRKASESTTPAPPTPRPRSSLQQENLVEQAGSSSLVNGRLHELPVPKPRGTPKPSEGTPAPRKDPPWITLVQAEPKKKPAPLPPSSSPGPPSQDSRQVENGGTEEVAQPSPTASLESKPYNPFEEEEEDKEEEAPAAPSLATSPALGHPESTPKSLHPWYGITPTSSPKTKKRPAPRAPSASPLALHASRLSHSEPPSATPSPALSVESLSSESASQTAGAELLEPPAVPKSSSEPAVHAPGTPGNPVSLSTNSSLASSGELVEPRVEQMPQASPGLAPRTRGSSGPQPAKPCSGATPTPLLLVGDRSPVPSPGSSSPQLQVKSSCKENPFNRKPSPAASPATKKATKGSKPVRPPAPGHGFPLIKRKVQADQYIPEEDIHGEMDTIERRLDALEHRGVLLEEKLRGGLNEGREDDMLVDWFKLIHEKHLLVRRESELIYVFKQQNLEQRQADVEYELRCLLNKPEKDWTEEDRAREKVLMQELVTLIEQRNAIINCLDEDRQREEEEDKMLEAMIKKKEFQREAEPEGKKKGKFKTMKMLKLLGNKRDAKSKSPRDKS
partner: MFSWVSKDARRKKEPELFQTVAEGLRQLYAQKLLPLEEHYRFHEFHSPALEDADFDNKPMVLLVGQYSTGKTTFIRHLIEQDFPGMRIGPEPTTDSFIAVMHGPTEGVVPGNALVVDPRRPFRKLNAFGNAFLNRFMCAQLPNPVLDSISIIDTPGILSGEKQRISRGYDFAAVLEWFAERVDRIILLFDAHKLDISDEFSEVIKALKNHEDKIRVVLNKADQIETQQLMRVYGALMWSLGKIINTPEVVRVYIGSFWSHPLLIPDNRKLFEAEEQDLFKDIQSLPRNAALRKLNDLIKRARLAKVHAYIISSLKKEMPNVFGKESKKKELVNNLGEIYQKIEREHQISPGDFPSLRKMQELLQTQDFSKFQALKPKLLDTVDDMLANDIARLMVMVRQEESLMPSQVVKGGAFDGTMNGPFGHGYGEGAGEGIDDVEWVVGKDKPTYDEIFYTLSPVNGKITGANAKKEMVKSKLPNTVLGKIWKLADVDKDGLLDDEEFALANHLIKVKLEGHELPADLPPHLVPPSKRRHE
B2: EH domain-containing protein 1 (Homo sapiens), Q9H4M9 (parent)
chain: B1 partner

Variants of: B1
Conditions: with ehd1_human EHD1, Q9H4M9

Row | Variant | effect of a mutation on the interaction
1 | N425A;F427A | disrupting interaction

Variants of: B1
Conditions: with ehd1_human EHD1, Q9H4M9
Remark: another data set of the same source

Row | Variant | effect of a mutation on the interaction
2 | N425A;F427A | decreasing interaction

Variants of: B2
Conditions: with milk1_human MICALL1, Q8N3F8

Row | Variant | effect of a mutation on the interaction
3 | K483E | with no effect
